Reference: patent publication US7943340B2, “Fungal dipeptidyl peptidase IV (DPPIV) enzyme for reagent use” (priority 2003, dated 2011)
“Also recorded” adds a separate entry of the source.

What was measured:
[1] = Aminopeptidase activity assay with fluorogenic aminoacyl-AMC substrates; assay type: biochemical
Procedure: (§1) Aminopeptidase activity was determined using different fluorogenic aminoacyl-4-methylcoumaryl-7-amide derivatives of peptides and the internally quenched fluorogenic substrate Lys(Abz)-Pro-Pro-pNA for specific determination of aminopeptidase P activity. Stockel et al, Adv Exp. Med. Biol. 421:31-35 (1997). All substrates were from Bachem (Bubendorf, Switzerland). Substrate stock solutions were prepared at 0.1 M according to the recommendations of the manufacturer and stored at −20° C. The reaction mixture contained a concentration of 5 mM substrate and enzyme preparation (between 56 and 2,662 ng per assay depending on the cleavage activity of each enzyme for the substrates) in 25 μl of 50 mM Tris-HCl buffer adjusted at the optimal pH for each LAP (between 7 and 8). After incubation at 37° C. for 60 min, the reaction was terminated by adding 5 μl of glacial acetic acid and the reaction mixture was diluted with 3.5 ml of water. The released 7-amino-4-methylcoumarin (AMC) was measured using a spectrofluorophotometer (Perkin Elmer LS-5 fluorometer, Zurich, Switzerland) at an excitation wavelength of 370 nm and an emission wavelength of 460 nm. A standard curve made with synthetic AMC was used to assess the released AMC. The released diprolyl-p-nitroanilide was measured at an excitation wavelength of 310 nm and an emission wavelength of 410 nm. The LA activities were expressed in mnoles of released AMC or pNA/min/μg protein.
Table 15 details the hydrolytic activity of different LAPs toward various aminoacyl-MCA comparison (%) to Leu-MCA used as a standard.

[2] = Aminopeptidase P activity assay; assay type: biochemical; conditions: substrate Lys(Abz)-Pro-Pro-pNA, 5 mM, 37° C., 60 min
Procedure: as §1

[3] = test system: gliadin 14 mer PQPQLPYPQPQLPY; assay type: biochemical, wheat; conditions: 4 h, 37° C., 1 mM CoCl2, pH7.2
gliadin 33 mer = assay: Digestion of gliadin 33 mer (RP-HPLC, ESI-MS); assay type: biochemical, wheat; conditions: within 4 h
Ala-proNPY = assay: Digestion of Ala-proNPY with ruLAP2; assay type: biochemical; conditions: overnight 37° C.
Procedure: The digested material was isolated by RP-HPLC and characterized by ESI-MS. […] The same result is obtained at an 1:[…] ratio. Digestion halts when the enzyme reaches a Xaa-Pro-motif, which in case of proNPY is Tyr-Pro. Conditions of incubation were the same as for Gly-Ser-proNPY.

denatured casein = assay: Digestion of full-length polypeptide chain (denatured casein); assay type: biochemical; conditions: partially purified, in the presence of a trypsin-like endoprotease from the P. pastoris expression system

B1: ruLAP2: T. rubrum leucine aminopeptidase, 495 amino acid residues (SEQ ID NO: 3) (protein, listed as Trichophyton rubrum)
chain: MKSQLLSLAVAVTTISQGVVGQEPFGWPFKPMVTQDDLQNKIKLKDIMAGVEKLQSFSDAHPEKNRVFGGNGHKDTVEWIYNEIKATGYYDVKKQEQVHLWSHAEAALNANGKDLKASAMSYSPPASKIMAELVVAKNNGCNATDYPANTQGKIVLVERGVCSFGEKSAQAGDAKAAGAIVYNNVPGSLAGTLGGLDKRHVPTAGLSQEDGKNLATLVASGKIDVTMNVISLFENRTTWNVIAETKGGDHNNVIMLGAHSDSVDAGPGINDNGSGSIGIMTVAKALTNFKLNNAVRFAWWTAEEFGLLGSTFYVNSLDDRELHKVKLYLNFDMIGSPNFANQIYDGDGSAYNMTGPAGSAEIEYLFEKFFDDQGIPHQPTAFTGRSDYSAFIKRNVPAGGLFTGAEVVKTPEQVKLFGGEAGVAYDKNYHRKGDTVANINKGAIFLNTRAIAYAIAEYARSLKGFPTRPKTGKRDVNPQYSKMPGGGCGHHTVFM
- hydrolysis of Leu-AMC [1]: efficiently hydrolyzed
- hydrolytic activity toward Ala-AMC in comparison (%) to Leu-MCA ([1]; substrate Ala-AMC, 5 mM, 37° C., 60 min): 33.3%
- hydrolytic activity toward Arg-AMC in comparison (%) to Leu-MCA ([1]; substrate Arg-AMC, 5 mM, 37° C., 60 min): 1.9%
- hydrolytic activity toward Asn-AMC in comparison (%) to Leu-MCA ([1]; substrate Asn-AMC, 5 mM, 37° C., 60 min): 114.6%
- hydrolytic activity toward Asp-AMC in comparison (%) to Leu-MCA ([1]; substrate Asp-AMC, 5 mM, 37° C., 60 min): 3.8%
- hydrolytic activity toward Cys-AMC in comparison (%) to Leu-MCA ([1]; substrate Cys-AMC, 5 mM, 37° C., 60 min): 14.9%
- hydrolytic activity toward Gln-AMC in comparison (%) to Leu-MCA ([1]; substrate Gln-AMC, 5 mM, 37° C., 60 min): 49.9%
- hydrolytic activity toward Glu-AMC in comparison (%) to Leu-MCA ([1]; substrate Glu-AMC, 5 mM, 37° C., 60 min): 3.7%
- hydrolytic activity toward Gly-AMC in comparison (%) to Leu-MCA ([1]; substrate Gly-AMC, 5 mM, 37° C., 60 min): 3.3%
- hydrolytic activity toward Gly-Pro-AMC in comparison (%) to Leu-MCA ([1]; substrate Gly-Pro-AMC, 5 mM, 37° C., 60 min): 7.2%
- hydrolytic activity toward His-AMC in comparison (%) to Leu-MCA ([1]; substrate His-AMC, 5 mM, 37° C., 60 min): 0.6%
- hydrolytic activity toward Hyp-AMC in comparison (%) to Leu-MCA ([1]; substrate Hyp-AMC, 5 mM, 37° C., 60 min): 14.2%
- hydrolytic activity toward Ile-AMC in comparison (%) to Leu-MCA ([1]; substrate Ile-AMC, 5 mM, 37° C., 60 min): 6.4%
- hydrolytic activity toward Leu-AMC in comparison (%) to Leu-MCA used as a standard ([1]; substrate Leu-AMC (standard), 5 mM, 37° C., 60 min): 100.0%
- hydrolytic activity toward Lys-AMC in comparison (%) to Leu-MCA ([1]; substrate Lys-AMC, 5 mM, 37° C., 60 min): 4.6%
- hydrolytic activity toward Met-AMC in comparison (%) to Leu-MCA ([1]; substrate Met-AMC, 5 mM, 37° C., 60 min): 119.7%
- hydrolytic activity toward Phe-AMC in comparison (%) to Leu-MCA ([1]; substrate Phe-AMC, 5 mM, 37° C., 60 min): 17.1%
- hydrolytic activity toward Pro-AMC in comparison (%) to Leu-MCA ([1]; substrate Pro-AMC, 5 mM, 37° C., 60 min): 21.4%
- hydrolytic activity toward Pyr-AMC in comparison (%) to Leu-MCA ([1]; substrate Pyr-AMC, 5 mM, 37° C., 60 min): 0.0%
- hydrolytic activity toward Ser-AMC in comparison (%) to Leu-MCA ([1]; substrate Ser-AMC, 5 mM, 37° C., 60 min): 26.1%
- hydrolytic activity toward Thr-AMC in comparison (%) to Leu-MCA ([1]; substrate Thr-AMC, 5 mM, 37° C., 60 min): 0.9%
- hydrolytic activity toward Val-AMC in comparison (%) to Leu-MCA ([1]; substrate Val-AMC, 5 mM, 37° C., 60 min): 4.8%
- hydrolytic activity toward Lys(Abz) Pro-PropNA in comparison (%) to Leu-MCA [2]: 0.0%
- digestion of the 14 mer [3]: not digested; also recorded: results only in the cleavage of the N-terminal Proline
- partial degradation of the 33 mer (gliadin 33 mer): less than 50%
- removal of N-terminal alanine from Ala-proNPY (Ala-proNPY): almost totally removed
- digestion of denatured casein (denatured casein): sequentially digest a full-length polypeptide chain, such as denatured casein
